Assay results as given in patent publication US7732178B2, “Laccase enzymes and their uses” (AB Enzymes Oy, priority 2004, dated 2010).
“Also recorded” adds a separate entry of the source.

Columns and labels:
[1] = Redox potential of T1 copper, photometric copper titration; assay type: physicochemical; details: 0.1 M KH2PO4 (pH 6.0)
Method: The purified recombinant Thielavia and Chaetomium laccases were characterized in terms of pH optimum, thermal stability, and pI as described in Example 2. The molecular weight was determined by MALDI-TOF mass spectrometry on a Ultraflex™ time-of-flight instrument (BrukerDaltonics, Germany) as previously described (Palonen et al., 2003). The redox-potentials of the T1 coppers of for CtLcc, and TaLcc2 laccases were determined by photometric copper titration in 0.1 M KH2PO4 (pH 6.0) as described by Xu et al. (1996) using the redox titrant couple K3Fe(CN)6/K4Fe(CN)6. The redox potential of TaLcc1 was determined with a combined Pt—AgCl/KCl microelectrode at pH 5.0 according to Sigoillot et al (2004). The characterization results are collected to Table 14.

[2] = Denim bleaching at different pH values; parameters: key to After laccase treatment L* / After laccase treatment b* / Increase of L*: CIE L*a*b* colour coordinates (illuminant D65), Minolta reflectance; details: for After laccase treatment L* / After laccase treatment b* / Increase of L*: face side of denim, 30 min, 50° C.
Method: (§1) Lee Cooper jeans (MASI Company Oy, Finland) that were desized and treated with neutral ECOSTONE® cellulase were used as test material. Laccase treatments were performed in LP-2 Launder Ometer as follows. About 10 g of denim swatches (15×14 cm) were loaded into 1.2 liter containers containing 200 ml Mc Ilvaine's citrate phosphate buffer pH 5, 6 or 7 and the containers were temperated. Enzyme with or without the mediator (methyl syringate, DeniLite II Assist, Novozymes) was added as laccase activity units. Enzyme was dosed 200 nkat/g and the mediator 10 mg/g on the weight of fabric. […] The Launder Ometer was run at 50° C. for 30 min and after that the temperature in Launder was raised to 80° C. for 10 min. The swatches were carefully rinsed with warm water, dried half-dry in a tumbler and after that air dried.
(§2) The bleaching effect was evaluated by measuring the colour as reflectance values with the Minolta Chromameter CM 1000 (Minolta Co.) using L*a*b* color space coordinates (illuminant D65). The colour from both sides of the swatches was measured before and after the laccase treatment. Each measurement was the average of several measurements.

[3] = Denim bleaching at different temperatures; parameters: key to After laccase treatment L* / After laccase treatment b* / Increase of L*: CIE L*a*b* colour coordinates (illuminant D65), reflectance; details: for After laccase treatment L* / After laccase treatment b* / Increase of L*: face side of denim, 30 min, pH 6, enzyme 200 nkat/g, mediator 10 mg/g
Method: as §1, §2
The test system and denim were as in Example 7, except that the conditions during the laccase and mediator treatment in Launder were 30 min, pH 6 and temperature 30-70° C. (DeniLite II Base also at 80° C.) and the enzyme was inactivated by alkaline treatment instead of raising the temperature in Launder as follows. After removing swatches from the containers they were soaked in warm water containing NaOH (pH 11.5) for 10 min and rinsed carefully with warm water. The swatches were dried half-dry in a tumbler and after that air dried. The bleaching effect was evaluated by measuring the colour as reflectance values as in Example 7.

[4] = Specific activity towards syringaldazine; assay type: biochemical; details: 25 mM MES buffer, pH 5.5
Method: Specific activities of the purified T. arenaria and C. thermophilum laccases were determined towards different laccase substrates.

Decolorization of dyes [5] = assay: Decolorization of dyes; parameters: key to Decolorization of Indigocarmine, Time 30 min / Decolorization of Indigocarmine, Time 60 min: −: no visually detectable change; +: visually detectable fading of the colour; ++: considerable fading of the colour; +++: complete/almost complete decolorization; details: for Decolorization of Indigocarmine, Time 30 min / Decolorization of Indigocarmine, Time 60 min: Table 24, dye 5 mg/50 ml, enzyme 100 nkat/50 ml, 50° C., pH 6
Method: (§3) The recombinant laccases CtLcc1, TaLcc2 and TaLcc4, derived from Trichoderma strains (Example 7) were tested for their ability to decolorize different dyes in the presence of the methyl syringate mediator (Example 7) or without it. The experiments were carried out in 100 ml shake flasks containing 50 ml of dye dissolved in citrate phosphate buffer pH 6. Dye concentration 5 mg/50 ml was used. Enzyme was dosed 100 nkat per 50 ml and the mediator 5 mg per 50 ml. Control samples contained only dye solution. The shake flasks were incubated at 50° C. for 30, 60 and 120 minutes. Samples of 3.5 ml were taken in test tubes for visual evaluation.

Decolorization of dyes [6] = assay: Decolorization of dyes; parameters: key to Decolorization of Remazol Brilliant blue, Time 30 min / Decolorization of Remazol Brilliant blue, Time 60 min: −: no visually detectable change; +: visually detectable fading of the colour; ++: considerable fading of the colour; +++: complete/almost complete decolorization; details: for Decolorization of Remazol Brilliant blue, Time 30 min / Decolorization of Remazol Brilliant blue, Time 60 min: Table 24, dye 5 mg/50 ml, enzyme 100 nkat/50 ml, 50° C., pH 6
Method: as §3

[7] = pH 5, enzyme 200 nkat/g without the mediator, or mediator 10 mg/g alone
[8] = pH 5, enzyme 200 nkat/g, mediator 10 mg/g
[9] = pH 6, enzyme 200 nkat/g without the mediator, or mediator 10 mg/g alone
[10] = pH 6, enzyme 200 nkat/g, mediator 10 mg/g
[11] = pH 7, enzyme 200 nkat/g without the mediator, or mediator 10 mg/g alone
[12] = pH 7, enzyme 200 nkat/g, mediator 10 mg/g
[13] = in the presence of the mediator

- After laccase treatment L* [2, 7]: 30.11
- After laccase treatment b* [2, 7]: −18.63
- After laccase treatment L* [2, 8]: 33.68
- After laccase treatment b* [2, 8]: −17.91
- After laccase treatment L* [2, 9]: 29.17
- After laccase treatment b* [2, 9]: −18.51
- After laccase treatment L* [2, 10]: 39.01
- After laccase treatment b* [2, 10]: −17.46
- After laccase treatment L* [2, 11]: 28.24
- After laccase treatment b* [2, 11]: −18.30
- After laccase treatment L* [2, 12]: 35.85
- After laccase treatment b* [2, 12]: −18.27
- After laccase treatment L* ([3]; 30° C.): 33.99
- After laccase treatment b* ([3]; 30° C.): −19.33
- After laccase treatment L* ([3]; 40° C.): 37.08
- After laccase treatment b* ([3]; 40° C.): −18.53
- After laccase treatment L* ([3]; 50° C., alkaline inactivation): 37.47
- After laccase treatment b* ([3]; 50° C., alkaline inactivation): −18.48
- After laccase treatment L* ([3]; 60° C.): 36.07
- After laccase treatment b* ([3]; 60° C.): −18.26
- After laccase treatment L* ([3]; 70° C.): 32.84
- After laccase treatment b* ([3]; 70° C.): −17.94
B1: TaLcc2: Thielavia arenaria ALKO 4197 laccase, SEQ ID NO: 41, produced in Trichoderma reesei (protein)
chain: MLTETLKSRNMLQSILALLATALGSSAFAIPELPEVSLQPRQACENTATSRQCWGDLSIDTNYYEVLPSTGRPPQEYWLSVVEGPCAPDGYNRTCMTFNGTVPGPTLFADWGDELVIHVTNNMVNNGTAIHWHGIRMLNNTLNDGVPGVTQCAIAPGESMTYRFNVTQYGSTWYHSHFSLQYAEGLFGGMILRGPSTANWDEDLGVLFLQDWSHVEAFTRWHEAKAGFPPSLDGGLINGTNTFDCSTLSPTDPKCTGNGKKFETVFEPGKKYLIRLINVAIDGVFQFSIDGHSLTVIATDLVPIVPYTTDSVQITIGQRYDIIVEANATPGNYWMRADWVTACVTNDHPEHMTGIVRYDASSIDPPTSESNVTKTSSCLGEPNEKTIPHLSLDVTNIGGTNVEELSFDTTSGDYFQWTLNTSSLVLDWGNPTMARIFNGDAIFPTEYNVVAVNKTGTGPEWTVLVIQDQSNLPIAHPIHLHGHDFWVLAAEEGVFNGNISSFNTRNPARRDVATLPGRGYLAIAFQIDNPGTWLTHCHIAWHASQGLSLEFVESQSEIVTDEVSRGVFNDVCASWRAHDPLWEQEDSGI
modifications: Thielavia arenaria ALKO4197; (1)..(589) Deduced amino acid sequence of Thielavia arenaria ALKO4197 TaLacc2
- E^0 [1]: 450 mV
- Increase of L* [2, 7]: −0.02
- Increase of L* [2, 8]: 5.39
- Increase of L* [2, 9]: 0.30
- Increase of L* [2, 10]: 10.57
- Increase of L* [2, 11]: 0.77
- Increase of L* [2, 12]: 7.26
- decolorization of indigo dye of denim compared to DeniLite II Base ([2]; pH values 6 and 7, with mediator): more efficient
- decolorization of denim (increase of lightness) compared to Denilite II Base ([3]; 40-50 ° C. and pH 6): more efficient
- Increase of L* ([3]; 30° C.): 4.45
- Increase of L* ([3]; 40° C.): 8.15
- Increase of L* ([3]; 50° C., alkaline inactivation): 9.00
- Increase of L* ([3]; 60° C.): 6.82
- Increase of L* ([3]; 70° C.): 4.54
- Specific activity on syringaldazin [4]: 120 nkat/mg
- Decolorization of Indigocarmine, Time 30 min (Decolorization of dyes [5]; mediator 0 mg/50 ml): −
- Decolorization of Indigocarmine, Time 60 min (Decolorization of dyes [5]; mediator 0 mg/50 ml): −
- Decolorization of Indigocarmine, Time 30 min (Decolorization of dyes [5]; mediator 5 mg/50 ml): +++
- Decolorization of Indigocarmine, Time 60 min (Decolorization of dyes [5]; mediator 5 mg/50 ml): +++
- decolorization of Indigocarmine (Decolorization of dyes [5]; [13]): very effectively; also recorded: to great extend or completely
- Decolorization of Remazol Brilliant blue, Time 30 min (Decolorization of dyes [6]; mediator 0 mg/50 ml): −
- Decolorization of Remazol Brilliant blue, Time 60 min (Decolorization of dyes [6]; mediator 0 mg/50 ml): −
- Decolorization of Remazol Brilliant blue, Time 30 min (Decolorization of dyes [6]; mediator 5 mg/50 ml): ++
- Decolorization of Remazol Brilliant blue, Time 60 min (Decolorization of dyes [6]; mediator 5 mg/50 ml): +++
- decolorization of Remazol Brilliant Blue (Decolorization of dyes [6]; [13]): very effectively; also recorded: to great extend or completely
